Reference: patent US20220340642A1 (Kyowa Kirin, published 2022)

T1: soluble recombinant of human TL1A (His6, GS linker, Leu72-Leu251) (UniProt O95150 72-251)
T1 chain: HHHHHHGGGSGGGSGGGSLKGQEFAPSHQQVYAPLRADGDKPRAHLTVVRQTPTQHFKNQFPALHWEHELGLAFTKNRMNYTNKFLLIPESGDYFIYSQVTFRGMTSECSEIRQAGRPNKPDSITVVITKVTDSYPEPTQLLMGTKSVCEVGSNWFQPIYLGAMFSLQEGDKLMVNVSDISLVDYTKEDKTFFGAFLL

T2: soluble recombinant of human LIGHT (His10, GS linker, Asp74-Val240)
T2 chain: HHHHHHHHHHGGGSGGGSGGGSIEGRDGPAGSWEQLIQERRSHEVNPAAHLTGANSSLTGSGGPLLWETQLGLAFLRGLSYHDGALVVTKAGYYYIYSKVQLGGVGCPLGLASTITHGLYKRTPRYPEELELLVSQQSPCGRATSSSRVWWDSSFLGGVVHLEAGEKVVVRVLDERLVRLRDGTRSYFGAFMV

T3: soluble recombinant of human FasL (His6, Pro134-Leu281) (UniProt P48023 134-281)
T3 chain: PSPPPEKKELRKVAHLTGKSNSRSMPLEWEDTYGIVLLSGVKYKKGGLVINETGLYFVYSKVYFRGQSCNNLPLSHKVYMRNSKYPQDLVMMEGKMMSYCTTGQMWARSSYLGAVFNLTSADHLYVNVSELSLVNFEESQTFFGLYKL

T4: DcR3 FL-Fc (R&D Systems, Inc.) (human, UniProt O95407 30-300)
T4 construct: Bought product made in insect cells; also called DcR3-Fc (R&D Systems, Inc.); DcR3 FL-Fc (IgG1)
T4 sequence: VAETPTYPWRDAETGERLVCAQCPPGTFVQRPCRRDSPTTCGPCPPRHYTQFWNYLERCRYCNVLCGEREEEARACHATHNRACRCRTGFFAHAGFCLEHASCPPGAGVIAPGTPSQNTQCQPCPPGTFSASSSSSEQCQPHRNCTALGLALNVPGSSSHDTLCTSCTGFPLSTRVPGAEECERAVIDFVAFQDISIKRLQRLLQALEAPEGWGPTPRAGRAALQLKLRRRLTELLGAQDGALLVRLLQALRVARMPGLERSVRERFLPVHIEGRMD


How the values were obtained:
[1] = target: T1, soluble recombinant of human TL1A …; assay: BIAcore SPR
Procedure, shortened: (§1)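 The dissociation constant (Kd, nM) reflects binding of each test molecule to soluble recombinant His-tagged human or cynomolgus monkey LIGHT, TL1A or FasL. It was derived from surface plasmon resonance measurements in HBS-EP+ Buffer using a BIAcore T-100 or T-200 instrument (GE Healthcare).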

[2] = target: T2, soluble recombinant of human LIGHT …; assay: BIAcore SPR
Procedure, shortened: as §1

[3] = target: T3, soluble recombinant of human FasL …; assay: BIAcore SPR
Procedure, shortened: as §1

[4] = target: T4, DcR3 FL-Fc (R&D Systems, Inc.); assay: SPR, binder captured
Protocol: Regarding each of the various wild-type DcR3 controls and the DcR3 variants shown in Table 9, the binding activities to DcR3 ligands (LIGHT, TL1A, FasL) were analyzed by the SPR method using BIAcore T-100 (GE Healthcare). As the buffer, HBS-EP+Buffer was used.
After 10,000 RU of anti-human antibodies were immobilized to Series S Sensor Chip CM5 using Human Antibody Capture Kit (GE Healthcare), various wild-type DcR3 controls and DcR3 variants were injected at the flow rate of 10 μL/min for 30 seconds and captured. Meanwhile, the buffer containing no protein was injected into reference flow cells. Thereafter, as an analyte, DcR3 ligands of a human, a cynomolgus monkey or a mouse diluted to 0.08 to 80 nmol/L were injected at 10 μL/min for 2 minutes to monitor the binding, and subsequently the buffer was injected for 3 minutes to monitor dissociation. Then, 3 mol/L magnesium chloride was injected at 20 μL/min for 1 minute to perform a regeneration reaction. […] As a result of measurement, except for mouse LIGHT for which a trimer could not be produced, it was confirmed that various wild-type DcR3 controls and DcR3 variants bind to each DcR3 ligand of a human, a cynomolgus monkey or a mouse.

Binder | Kd [1] | Kd [2] | Kd [3] | Kd [4] | koff [4] | kon [4] | binding result [4]
DcR3 FL-Fc (R&D Systems, Inc.) (Fc fusion) VAETPTYPWRDAETGERLVCAQCPPGTFVQRPCRRDSPTTCGPCPPRHYTQFWNYLERCRYCNVLCGEREEEARACHATHNRACRCRTGFFAHAGFCLEHASCPPGAGVIAPGTPSQNTQCQPCPPGTFSASSSSSEQCQPHRNCTALGLALNVPGSSSHDTLCTSCTGFPLSTRVPGAEECERAVIDFVAFQDISIKRLQRLLQALEAPEGWGPTPRAGRAALQLKLRRRLTELLGAQDGALLVRLLQALRVARMPGLERSVRERFLPVHIEGRMD | 0.21 nM | 0.21 nM | 0.93 nM |  |  |  | 
soluble recombinant of human LIGHT (His10, GS linker, Asp74-Val240) (ligand) HHHHHHHHHHGGGSGGGSGGGSIEGRDGPAGSWEQLIQERRSHEVNPAAHLTGANSSLTGSGGPLLWETQLGLAFLRGLSYHDGALVVTKAGYYYIYSKVQLGGVGCPLGLASTITHGLYKRTPRYPEELELLVSQQSPCGRATSSSRVWWDSSFLGGVVHLEAGEKVVVRVLDERLVRLRDGTRSYFGAFMV |  |  |  | 1.1 nM | 0.0004 s⁻¹ | 380000 M⁻¹ s⁻¹ | 
soluble recombinant of human TL1A (His6, GS linker, Leu72-Leu251) (ligand, also called His6-TL1A; hTL1A) HHHHHHGGGSGGGSGGGSLKGQEFAPSHQQVYAPLRADGDKPRAHLTVVRQTPTQHFKNQFPALHWEHELGLAFTKNRMNYTNKFLLIPESGDYFIYSQVTFRGMTSECSEIRQAGRPNKPDSITVVITKVTDSYPEPTQLLMGTKSVCEVGSNWFQPIYLGAMFSLQEGDKLMVNVSDISLVDYTKEDKTFFGAFLL |  |  |  | 0.89 nM | 0.00035 s⁻¹ | 390000 M⁻¹ s⁻¹ | 
soluble recombinant of cynomolgus monkey TL1A (His6, GS linker, Leu72-Leu251) (ligand, also called His6-cynoTL1A) HHHHHHGGGSGGGSGGGSLKGQEFAPSHQQVYAPLRADGDKPRAHLTVVRQTPTQHLKNQFPALHWEHELGLAFTKNRMNYTNKFLLIPESGDYFVYSQVTFRGMTSECSEIRQAGRPNKPDSITVVITKVTDSYPEPTQLLMGTKSVCEVGSNWFQPIYLGAMFSLQEGDKLMVNVSDISLVDYTKEDKTFFGAFLL |  |  |  | 0.92 nM | 0.00035 s⁻¹ | 380000 M⁻¹ s⁻¹ | 
soluble recombinant of mouse TL1A (His6, GS linker, Ile94-Leu270) (ligand) HHHHHHGGGSGGGSGGGSITEERSEPSPQQVYSPPRGKPRAHLTIKKQTPAPHLKNQLSALHWEHDLGMAFTKNGMKYINKSLVIPESGDYFIYSQITFRGTTSVCGDISRGRRPNKPDSITMVITKVADSYPEPARLLTGSKSVCEISNNWFQSLYLGATFSLEEGDRLMVNVSDISLVDYTKEDKTFFGAFLL |  |  |  | 0.58 nM | 0.00049 s⁻¹ | 840000 M⁻¹ s⁻¹ | 
soluble recombinant of cynomolgus monkey LIGHT (His10, GS linker, Asp74-Val240) (ligand) HHHHHHHHHHGGGSGGGSGGGSIEGRDGHGGSWEQLIQERRSHQNNPAAHLTGANSSLTGSGGPLLWETQLGLAFLRGLDYHDGALVANKAGYYYIYSKVQLGGVGCPLGLASTITHGLYKRTPRYPEELELLVSQQSPCGRATSNSRVWWDSSFLGGVVHLEVGEEVVVRVLDERLVRLRDGTRSYFGAFMV |  |  |  | 1.2 nM | 0.00038 s⁻¹ | 310000 M⁻¹ s⁻¹ | 
soluble recombinant of human FasL (His6, Pro134-Leu281) (ligand) PSPPPEKKELRKVAHLTGKSNSRSMPLEWEDTYGIVLLSGVKYKKGGLVINETGLYFVYSKVYFRGQSCNNLPLSHKVYMRNSKYPQDLVMMEGKMMSYCTTGQMWARSSYLGAVFNLTSADHLYVNVSELSLVNFEESQTFFGLYKL |  |  |  | 1.3 nM | 0.0004 s⁻¹ | 310000 M⁻¹ s⁻¹ | 
soluble recombinant of cynomolgus monkey FasL (His6, Pro133-Leu280) (ligand, also called His6-cynoFasL) PSPPPEKKEQRKVAHLTGKPNSRSMPLEWEDTYGIVLLSGVKYKKGGLVINETGLYFVYSKVYFRGQSCTNLPLSHKVYMRNSKYPQDLVMMEGKMMSYCTTGQMWAHSSYLGAVFNLTSADHLYVNVSELSLVNFEESQTFFGLYKL |  |  |  | 1.1 nM | 0.00033 s⁻¹ | 300000 M⁻¹ s⁻¹ | 
soluble recombinant of mouse FasL (His6, Pro132-Leu279) (ligand) HHHHHHPSTPSEKKEPRSVAHLTGNPHSRSIPLEWEDTYGTALISGVKYKKGGLVINETGLYFVYSKVYFRGQSCNNQPLNHKVYMRNSKYPEDLVLMEEKRLNYCTTGQIWAHSSYLGAVFNLTSADHLYVNISQLSLINFEESKTFFGLYKL |  |  |  | 65 nM | 0.0097 s⁻¹ | 150000 M⁻¹ s⁻¹ | 
soluble recombinant of mouse LIGHT (His10, GS linker, Asp72-Val239) (ligand) HHHHHHHHHHGGGSGGGSGGGSIEGRDGGKGSWEKLIQDQRSHQANPAAHLTGANASLIGIGGPLLWETRLGLAFLRGLTYHDGALVTMEPGYYYVYSKVQLSGVGCPQGLANGLPITHGLYKRTSRYPKELELLVSRRSPCGRANSSRVWWDSSFLGGVVHLEAGEEVVVRVPGNRLVRPRDGTRSYFGAFMV |  |  |  |  |  |  | no binding (tested: 0.08 to 80 nmol/L)
